Results as given in the DeepSol protein solubility set.

test: soluble on expression in E. coli; label from the status in PepcDB or PDB records

Row | Sequence | soluble on expression in E. coli
1 | MAHHHHHHMNVLTSHTHLHMRRSCCMATARGCLGNIRTSDVSTRRCKGDYGFNIFHNSNPQHGASYARHERRMREDEVEDFLKSVKGWVPVDECFPCVDADADAEGADARKEEKEEMGPAPLTIFTGEGALKRDFDFANFRDAYLFMGRLWAFCYGSDKYPNVTWEGTRITVYIYSPSFRGLSKREARLAAFLNDQYNMFKKSKRQQKVIIDGVVKRSVIEDMMGECVAEALKRREEERQKPLAETVEGIATSWEAVLSKDGNNNNNDGTPSSCTSP | not soluble
2 | GSMSLPPIRLPSPYGSDRLVQLAARLRPALCDTLITVGSQEFPAHSLVLAGVSQQLGRRGQWALGEGISPSTFAQLLNFVYGESVELQPGELRPLQEAARALGVQSLEEACWRARGDRA | soluble
3 | MSDEREVAEAATGEDASSPPPKTEAASDPQHPAASEGAAAAAASPPLLRCLVLTGFGGYDKVKLQSRPAAPPAPGPGQLTLRLRACGLNFADLMARQGLYDRLPPLPVTPGMEGAGVVIAVGEGVSDRKAGDRVMVLNRSGMWQEEVTVPSVQTFLIPEAMTFEEAAALLVNYITAYMVLFDFGNLQPGHSVLVHMAAGGVGMAAVQLCRTVENVTVFGTASASKHEALKENGVTHPIDYHTTDYVDEIKKISPKGVDIVMDPLGGSDTAKGYNLLKPMGKVVTYGMANLLTGPKRNLMALARTWWNQFSVTALQLLQANRAVCGFHLGYLDGEVELVSGVVARLLALYNQGHIKPHIDSVWPFEKVADAMKQMQEKKNVGKVLLVPGPEKEN | soluble
4 | MLPPGMVAAESDFYLRRLWGLPHEDLKSEPRYLATFTVGINQKANIDACVKKFSENFTIVLFHYDGRVTEWDEFEWSKTAIHISVRKQTKWWYAKRFLHPDIVARYDYIFVWDEDLGVEHFNAEEYVKMVKKHGLEISQPGLEPNQGLTWQMTKRRGDMEVHKITEERPGWCSDPHLPPCAAYVEIMAPVFSRNAWRCVWHVIQNDLVHGWGLDFALRRCVEPAHEKIGVVDSQWVVHQSFPSLGNQGEATDGKAPWQGVRDRCKKEWTMFQSRMANAEKDYFKSLQVEGSSNSTATTI | soluble
5 | MGSDKIHHHHHHMANSRKHLIYLVYGRQTYHQEALFSIASAFAHLRDGAAHGLTVRVYTDDPSPYAGLPVQVREVTAEELVAWCQPHGYHFRAKHVALRDALEEADQALLIDTDTFFHSSPLRLFDRIQPGSLLCNAIGARYGEHRNFPLYRDLSPYLFERGWADDEMHQLNSGVIGLPREEAKILDRSLELMDELYPIANGAYTLEEFVLAVAAHKRLELVGCTDLIHHYWSRKQLFRAKIQAWLCKHGSSLLSAAALDDTLKVTDRLPRPPRAKRLLYKLGTLPLPAPMRQFSIELLYGCHEYSNEFDRACGPVWWEKAATNAIERYPQEPIAEQIEDWLNHSLLRNLLGSRANEIRQHLRQRDLL | not soluble
6 | MGSDKIHHHHHHMDITQLKMFQTVVECGTMAKASLQLHCVPSNITTRIKQLEEELGAPLFYREGKSLKLTPSGEIFLDYCHKILALCDEAKRSIHPDAPPSGPLKIGAIESSATTRLPNLLAKYHQRYPEVSIQIITGTWKQLLVDISQHKLDGAIVAGNIEFPMLNKLSIYQEDMVLIASHSLGEIRCQEDLIGKEIFMWTEGCPYRAALEEWLKLKNISLPITSITSYATIIGCVSAGSGVALVPKSIYEQYKNLAHIQSYKFEYLAFMQNHFFWHKNVSNHKARDMFIELIKSEFCL | not soluble
7 | MNDEEKPCIENILSAAEELEKLGYEPVIIADASLRHEIDDKEQFRKLLEEGKFQQVPSGTSADHFILKMAEEEDAKILSNDVFRDYKDEFQDINSRRIPYTFREDKILIGTSGKPKKVKNILQKICNEALEHHHHHH | not soluble
8 | MGSDKIHHHHHHMSELIEVTHLTFTYTGQAAPALKDVSLTIHAGEFITLVGATGSGKTTLLKQLKHELWPAGERTGSLTFQDTAIQALSPVESAQQIGYVAQDPQVQPIMATVMEELAFPLENLGYPTATINDRIAEIANYLDLNHLLQRAIETLSGGQLQLVNLASVLALKPQVILLDESTAQLDPTTAQKFLNILQQVHDELDLTIVLTEHRLSRVMALTDRVALLANGQVLTVAEPTPALQQMAATPALQAFVPPVPHFFLDHNLVVTPLPLSVTMGRRALRQSSWRFQAVTTRQPAQSGPRESVLVATGVSFHYPTTGDILHQVELQVATGDWLAIIGKNGSGKSTLLTVLAGLQKPQHGKVRLNQQVIWRMKNQDRVLQVGYLSQNPTEQFNGDSVREELTAQAQLRGTSVAQRVDQMLIRCHLTAVADQNSFDLSGGQQQLLGLGLALMTEPQVLLLDEPTKGLDPDTKLRIGQLLQQAHETGLTIIMASHDMDFSAQFADTCTFMFNGRVNPPQATRLFFTQNFLATTAVNRLLRQQVPQALFSQDVVRTDKGGE | not soluble
9 | MTDQIKTDNARSKAEQLPLAFSHQSASGREDLLVSASLAAAVSLVDEWPNWPSPVVVLAGPPGSGKSHLANIWKNISDARDIHPEAGADAARAAETGPVLFEDADRRGFDDTELFHVINSVRQHGTTLLMTSRQWPAAWPVTLPDLRSRLKAVTVVETGEPDEGLLAQVLVKLFADRQLYMDDKLIGYIVNRMERSLDTAQTIVEQIDHLALSRATRITRPLVAEVLNAMDKAAAGDGSDID | not soluble
10 | GPLGSLPEELVHAGWEKCWSRRENRPYYFNRFTNQSLWEMPVLGQHDVISDP | soluble
11 | MGSDKIHHHHHHMTSHRAEFPIKLRFLFEPARYKILYGGRGGAKSWGVARALLIQAAATPLRILCVREFQNSIVESVHHLLKAQIEAIGLNSFYEVHNNVIRGINGSEFIFAGLHSNVTRIKSFEGVDRVWVEEAQTVSKTSWDTLIPTIRKEGSEIWVTYNPELNTDETHQRFVVNPPAGAVVVKINWNDNPWFPEILRREKDGLKARDPDAYQNVWEGNCRVTLEGAVYAKELRLAQEEGRIRSVPYDEAKPVHTFFDLGWADNTSIWFAQTVGNELRLIDYYSNSQMPIQHYIGVLQNKGYMYGTDWLPHDARARTLATGRSVEEIMLAAGRKVRIVPNLSIHDGINAARTIFPRCYFDEQNCAEGLQSLRHYRFDVDRDSGQFSARPLHDYHSHAADAFRYFAMAIEEDKPAASARGINMKGWRA | not soluble
12 | TGFNYFQYNITNSLNASYGPSQEGNQTDFYAGAVQLQQTVVQLDVDRGLEVGLASPLNVAAGALFRADNYQLKAGEEASWAGFENPPWGINQNGGTPAPGAQVFPGFRPEQEVDETRTNIGTYVDLQADLIDPLQVNIAGRFENYSDFGSTVNGKVALRFEPVSQLAFRGTAQTGYRAPNQAQKFFSKVSTTFIDNQPVQTGIFRINSDVGNALGIPDLE | not soluble
13 | MAYCNPGLESRPNKRNALRRHVVTGIGMKIVIAPDSYKESLSASEVAQAIEKGFREIFPDAQYVSIPVADGGEGTVEAMIAATQGSERHAWVTGPLGEKVNASWGISGDGKTAFIEMAAASGLELVPAEKRDPLVTTSRGTGELILQALESGATNIIIGIGGSATNDGGAGMVQALGAKLCDANGNEIGFGGGSLNTLNDIDISGLDPRLKDCVIRVACDVTNPLVGDNGASRIFGPQKGASEAMIVELDNNLSHYADVIKKALHVDVKDVPGAGAAGGMGAALMAFLGAELKSGIEIVTTALNLEEHIHDCTLVITGEGRIDSQSIHGKVPIGVANVAKKYHKPVIGIAGSLTDDVGVVHQHGIDAVFSVLTSIGTLDEAFRGAYDNICRASRNIAATLAIGMRNTG | not soluble
14 | MGSDKIHHHHHHMTTTSPDISRFGPIGLVVIQSTSLCNLDCSYCYLPDRKSRKIFDLELLPLLMQRIFESPFFGEELSLVWHAGEPLTLPCSYYDRATQLINEAVEQWTNGTVHVEQHVQTNATLINDAWCECFRRNKIIVGISVDGPKDIHDANRCFGNGEGSHVHSMRGIEALKRNKIPFHAIAVVTATAMDHPNEMYQFFRDNEIHSVGFNVEEQEGEHTSSSMQGYEREEQYRQFLESFWQLSEQDGFPVVLREFDQVISLIRENRRLNQNELNRPYSILSVDWQGNFSTFDPELLSVSSKLYGTFDLGSIRNISLMEAAKTERFQTLWKDMLSGVKRCEKECNYFGFCGGGMGSNKFWEHGSLNCSETNACRFNNKIPVDVLLDRFKSSPPIDNETPF | not soluble
15 | MSYDANLTKYMDFLVKKTKNAAEPTTFKEIFDEYSRLDPDRSTYSMCYDKFHHRLAPIMNELNTYSIRERVRVMLTMGGKVSKDFLTTIEKLGTVQLDEKRRILKYASKDGKFKIEGARSEFMDFLIQQTRDAVRPMTSTSIAKEFCRIKDRQVSVDTFNKKFRRNLAPNMSRWSSYLLGDRIRMMFVLKGTVRTDFLAEIEKSGTVQLDDQRRIVRYASNDGMIELEEKTSGVKRRRSTKSSNTPTKRREITENELSDTDDVEVMEIVDGYVEQESASFDFEELVNREASYNLDQGHLYREILEAPLLENRDSKFNPFNAKSGRQAEVQRSGTFLNESEGTSTNAQESFVFRGFLKQEPVFEQFHIQNMSNNLVNLPIPPEIEETPVQEGHHVEPSGITGSDGIRLHKFLNSLELMLTSLESDTLNDLMQEIEEIRRRTDEILPSELVITTLQTFFLGITRKFRPETSAPSKSAKECLRIFKYALLWLKNPLLYDLQKRVQDEIENHEADGKVLLIADVQQGIRNILFTVV | not soluble
16 | MKDVVIVGALRTPIGCFRGALAGHSAVELGSLVVKALIERTGVPAYAVDEVILGQVLTAGAGQNPARQSAIKGGLPNSVSAITINDVCGSGLKALHLATQAIQCGEADIVIAGGQENMSRAPHVLTDSRTGAQLGNSQLVDSLVHDGLWDAFNDYHIGVTAENLAREYGISRQLQDAYALSSQQKARAAIDAGRFKDEIVPVMTQSNGQTLVVDTDEQPRTDASAEGLARLNPSFDSLGSVTAGNASSINDGAAAVMMMSEAKARALNLPVLARIRAFASVGVDPALMGIAPVYATRRCLERVGWQLAEVDLIEANEAFAAQALSVGKMLEWDERRVNVNGGAIALGHPIGASGCRILVSLVHEMVKRNARKGLATLCIGGGQGVALTIERDE | soluble
17 | MSFDGFFLHHLTKELQEQILWGRIQKVNQPFEQELVLTIRNNRQNYKLLLSAHPVFGRVQLTKTDFQNPQSPNTFTMIMRKYLQGALIENIEQIENDRILEMSISNKNEIGDQIKVTMIIEIMGKHSNIILLDKNEGKITESIKHIGFTQNSYRTILPGSRYLAPPKIQAQNPFTISDETLFEILQTEDLAANNLQKLFQGLGRDTAAELSQRLKTDTFKNFKLFFDSPTSPTLTEKSFTAITFSNSQETFGSLSDLLDYFYQDKAERDRIAQQASDLIHRIQNELEKNKKKLKKQEQELQDTDKAEEFRQKGELLTTYLNQVPNNQDSVELDNYYTGQKVSIPLNKALTPSQNAQRYFKKYQKLKEAVKHLGSLISETKATIQYLESVDNALNQASLSEISEIREELVQTGFVKRRHREKIQKRKK | not soluble
18 | MGSDKIHHHHHHMNYRERIAQSITPLQGNLFRVVESQEDIATARIVDSMQEQNRLEELLESNKPPVPGTARKRHYLLTTPFRYPPLKYGSRFGRSFEPSLFYGAMSIPTALAETAFYRFVFMSHLKVPFKRPLTTLHTVFSARFRTERGVRLQSEHWQDLHHTLADPVSYRESQAVGTDMRSLQVGAFQFLSARALQAGLYALPYHPDNGVEGVNVALFNASVFRDAAPRSYQKLIAVTSPSQVSMSLSEPDGSKKVYEFSLDQFLVEGELPQPAP | not soluble
19 | QKVTLVKKKQETVSIDAGIDRMRRAVRLLDRAEWVEVIDSVRTNKADLLSAYNLIADNGRLEWVKGNQGEATSFVNGRGDHAIMTEKGEDGVYSLHEAHRIGGKWGNAIPLEKLNSRFNENYPSLRADGFTLLFASDRPDGIGGYDLYMTRRDLEDGIFLEPTLLGMPFNSPYNDYLLVYDELRGIGFFASDRFCPADVVTVYTFVINEEGRPVATDDMALKRAYASLKSIRATQDPERDYSRLIASARDNRTDAEKKASERQIYFPMQGMRIYTRWSDFQSSEAKSLYQDVMARKRKLEQAATRLEELRLLYGRASALERSGMKQEILRLENAIPPLEEEVGRMEKEVRNMELQAVQGF | not soluble
